Experimental data reported in paper PMC5269589, “Functional characterization of NES and GES responsible for the biosynthesis of (E)-nerolidol and (E,E)-geranyllinalool in Tripterygium wilfordii” (Scientific Reports, 2017).

B1: TwGES1 (Tripterygium wilfordii) (protein)
chain: MDFSDSSIISLVDKIKVEMFVDMDVYSFVAPSAYDTAWLAMVPDSRSPVQPLFMDCLDWVLNNQREEGFWGDIDGHGMPAIESLTSTLACLIALKKWNVGESAIQKGLDFVRENAEMYIEEIKDCCPRRFAVIFPAMLEQASSLGLDNILPNHVKDTVHVMDIFIEHRRIVEKEELVETYHYPPLLAYLEALPPNKIDKDQIVTHLSSDGSLFQSPSATASAFMITGNKDCLAYLKAIIQRCPNGVPATYPIDEDLIRLCMVNHLQRLGLAEHFTKEIKNMLTSVHRNYSTNHRSTVKDSNLLHLYKDSLAFWLLRMNGYIVSPGSFCWFMQRGDIKDRIENNYYDDDFSSVMLNVYKATDLMFPGEEDQLEEARCFARKLLENVISTTSGNQNHLHKLIGHELKTPWLARLDHLEHKMWITQEHDSTLLWMGKFSFHRLSYDNSERLTQLAVQNYKYRQSIYRKELVELKRWSREWGLSEMGFGREKTTYCYFVVAASTSLPKHSDVRLIAAKIGILITVADDFFDEHASLDELQNLTHAIQRWDGKGLSGHSRTIFEVLDDLVREIAKKYKEQQEGIDVSDSLKNLWYETFLAWLVESQWSKNGHIPSMDEYIETGMISIASHTLLLPASCFLNPSLAYHQLKPLEYENITKLLMLITRLLNDTQSYQKEQKSGKKNFVLLYLKENPEAEIEDAIEYVGEIIEKKKKEFFEYALMDGLSELPKECRHLHLACLKVYQMLFNSSNRYDSNTELIQDIQEAFYQSPDPEIGVSSSKSSSIKSTKKPVSLPQHLSFKKQNNQTTSYYHSSFDYRGSNNIAVKWASWPKWRVDGYNKSMFVTPKFSPCFI
notes: MBP fusion (pMAL-c2X) from E. coli Transetta (DE3), amylose resin; tag cleavage not mentioned
B2: TwNES (Tripterygium wilfordii) (protein)
chain: MAFFGSSRSSIIPLKTISQIVTADSTNKRGTVDSNHKSAPTTPLNDRICTEHAHKVKDFKQIINIAGEDPSEGLAIIDAVQRLGVDHHFQDEIHTILQKHYTLATGTTTHGDCMITSLRFRLLRQEGYYVSADVFEGLKDEEGKFDQNLSGDIKGLMALYEASQLSMEGENILDEARDYSSRLLNECVTQLDHDQARIVEHTLTHPHHKSLARFMAKNFLRDFHGTNGWIDDLKKLAKVDFDMAQSTYQKEVVQISQWWKELGLAEELKFARDQPVKWYIWTTTCHQDPSFSELRINLTKPISFVYLIDDIFDVYGTPQEVTDFTEAVDRWDHDAIDQLPYYMKICFKALDDITNEISYKVYKQHGWNPLDSLRKSWGRLCNAFLTEAQWFASGHLPKAEEYLENGIISSGVPVVLLHLFFLLGEGVTQKSVEMIDNTPAIVSAAAAILRLWDDLGSAKDEDQDGKDGSYLACYTNENPGCSLEDAEKHVKSKICDEWKQLNKECLSQKNPFSPSFLKACLNVSRMVPLMYEYDENRRLPRLEEFLKSILIK
notes: MBP fusion (pMAL-c2X) from E. coli Transetta (DE3), amylose resin; tag cleavage not mentioned; gene synthesized

Legend:
[1] = substrate: CC(C)=CCC/C(C)=C/CC/C(C)=C/CC/C(C)=C/COP(=O)(O)OP(=O)(O)O; test: GC-MS of hexane-extracted product; Michaelis-Menten fit; assay type: biochemical, Tripterygium wilfordii; conditions: pH 7.5, 30 °C, 10 min, Mg2+ 10 mM in text (20 mM in Figure 5 legend), no added K+ stated, product (E,E)-geranyllinalool
[2] = substrate: CC(C)=CCC/C(C)=C/CC/C(C)=C/CO[P@@](=O)(O)OP(=O)(O)O; test: as above; assay type: biochemical, Tripterygium wilfordii; conditions: 200 mM K+, pH 7.5, 30 °C, 10 min, Mg2+ 10 mM in text (20 mM in Figure 5 legend), product (E)-nerolidol

Row | Protein | Km [1] [µM] | Km [2] [µM]
1 | B1 | 2.039 | –
2 | B2 | – | 12.700
